Measurements taken from US20220154204A1 (University of California, published 2022).

Biological target: T1, nYFP-GEF1 (UniProt Q93ZY2 1-548)
T1 construct: BiFC positive control partner; also called RopGEF1; not shown: N-terminal YFP fragment (nYFP) from BiFC vector pSPYNE173
T1 sequence (looked up): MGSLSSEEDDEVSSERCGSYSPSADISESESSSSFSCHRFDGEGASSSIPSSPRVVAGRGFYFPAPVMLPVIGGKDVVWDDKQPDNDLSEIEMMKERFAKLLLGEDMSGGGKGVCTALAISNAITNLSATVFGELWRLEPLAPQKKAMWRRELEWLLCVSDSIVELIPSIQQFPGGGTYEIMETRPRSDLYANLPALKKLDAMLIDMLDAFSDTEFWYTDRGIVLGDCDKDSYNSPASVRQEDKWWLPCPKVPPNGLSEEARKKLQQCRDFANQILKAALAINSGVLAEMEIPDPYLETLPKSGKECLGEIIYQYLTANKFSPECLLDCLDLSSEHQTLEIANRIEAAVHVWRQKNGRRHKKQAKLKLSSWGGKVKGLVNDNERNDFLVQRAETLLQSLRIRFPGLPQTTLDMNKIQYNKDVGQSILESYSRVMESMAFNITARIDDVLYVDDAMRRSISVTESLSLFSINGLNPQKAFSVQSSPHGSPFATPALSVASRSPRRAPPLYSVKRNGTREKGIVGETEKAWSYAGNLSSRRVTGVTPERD
Assay: BiFC in Nicotiana benthamiana leaves, positive control
Procedure: a, Co-immunoprecipitation experiments using transiently expressed M3Kδ6 and OST1/SnRK2.6 in Arabidopsis mesophyll cell protoplasts. OST1/SnRK2.6-GFP or GFP control co-expressed with M3Kδ6-FLAG were immunoprecipitated with GFP antibodies. Precipitated proteins were analyzed by immunoblots using GFP or FLAG antibody. b and c, BiFC analyses of nYFP-M3Kδ6 (b) or nYFP-M3Kδ7 (c) with OST1/SnRK2.6-cYFP, SnRK2.2-cYFP, 2.4-cYFP and 2.10-cYFP infiltrated in 6-week-old Nicotiana benthamiana leaves. nYFP-GEF1/cYFP-ABI1 combination was used as a positive control. All images are at the same scale. Scale bars=50 μm. d and e, BiFC quantifications measured from maximal projections of z-stacks and normalized over an infiltration control expressing p19 only. BiFC quantifications were analyzed by one-way ANOVA followed by Tukey's tests. Confocal images were acquired using identical settings for each BiFC experiment. Means±s.e.m. (n=45).

B1: cYFP-ABI1 (enzyme, UniProt P49597 1-434, looked up)
chain: MEEVSPAIAGPFRPFSETQMDFTGIRLGKGYCNNQYSNQDSENGDLMVSLPETSSCSVSGSHGSESRKVLISRINSPNLNMKESAAADIVVVDISAGDEINGSDITSEKKMISRTESRSLFEFKSVPLYGFTSICGRRPEMEDAVSTIPRFLQSSSGSMLDGRFDPQSAAHFFGVYDGHGGSQVANYCRERMHLALAEEIAKEKPMLCDGDTWLEKWKKALFNSFLRVDSEIESVAPETVGSTSVVAVVFPSHIFVANCGDSRAVLCRGKTALPLSVDHKPDREDEAARIEAAGGKVIQWNGARVFGVLAMSRSIGDRYLKPSIIPDPEVTAVKRVKEDDCLILASDGVWDVMTDEEACEMARKRILLWHKKNAVAGDASLLADERRKEGKDPAAMSAAEYLSKLAIQRGSKDNISVVVVDLKPRRKLKSKPLN
notes: BiFC positive control partner; order of tag and protein as the printed name gives it; not shown: C-terminal YFP fragment (cYFP) from BiFC vector pSPYCE(M)
  binding result: binds
